Here are results for two molecules from publication PMC3909270, “The basic keratin 10-binding domain of the virulence-associated pneumococcal serine-rich protein PsrP adopts a novel MSCRAMM fold” (Open Biology, 2014).

The labels stand for the following.
B2: KRT10 tail-rod-2B domain (KRT10-TRD) (domain or fragment)
chain: LKQSLEASLAETEGRYCVQLSQIQAQISALEEQLQQIRAETECQNTEYQQLLDIKIRLENEIQTYRSLLEGEGSSGGGGRGGGSFGGGYGGGSSGGGSSGGGHGGGHGGSSGGGYGGGSSGGGSSGGGYGGGSSSGGHGGSSSGGYGGGSSGGGGGGYGGGSSGGGSSSGGGYGGGSSSGGHKSSSSGSVGESSS
notes: Keratin-10 (KRT10), tail-rod-2B domain, residues 385-579, Uniprot ID P13645; source: expressed from pET21d, soluble, purified (IMAC, anion exchange)

Conditions in all cases: both partners purified
For assay [1], the target named is B2. The assay is described as follows: ELISA; KRT10 constructs coated on Nunc C96 plates (coating adjusted to KRT10-TRD at about 5 µg/ml), 2% BSA block; STII-BR_(187–385) 23 nM to 3 µM in PBS; detected with Strep-Tactin HRP; four-parameter logistic fit.
In assay [2] the target is T1, KRT10 rod domain (KRT10-ROD) (human, UniProt P13645 137-448, M150L).
T1 construct: Keratin-10 (KRT10), rod domain, residues 137-448, Uniprot ID P13645; M150L introduced to prevent second translation initiation; source: expressed from pET21d, purified as inclusion bodies, anion exchange in 6 M urea, dialysed against urea-free buffer
T1 sequence: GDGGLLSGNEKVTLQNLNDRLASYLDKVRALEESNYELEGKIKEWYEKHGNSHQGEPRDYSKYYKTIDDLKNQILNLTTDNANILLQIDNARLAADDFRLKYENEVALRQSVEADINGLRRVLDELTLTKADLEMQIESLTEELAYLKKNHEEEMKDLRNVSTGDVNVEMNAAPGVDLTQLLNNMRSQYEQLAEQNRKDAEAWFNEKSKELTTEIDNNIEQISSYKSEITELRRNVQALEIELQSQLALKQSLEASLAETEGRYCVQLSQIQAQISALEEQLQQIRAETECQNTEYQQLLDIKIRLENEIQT
The description is as above.

For assay [3], the target named is T2, full-length keratin-10 (KRT10-FL) (human, UniProt P13645 1-584).
T2 construct: Keratin-10 (KRT10), residues 1-584, Uniprot ID P13645; also called KRT10-full-length; full-length KRT10; source: expressed from pET21d, purified as inclusion bodies, anion exchange in 6 M urea, dialysed against urea-free buffer
T2 sequence (looked up): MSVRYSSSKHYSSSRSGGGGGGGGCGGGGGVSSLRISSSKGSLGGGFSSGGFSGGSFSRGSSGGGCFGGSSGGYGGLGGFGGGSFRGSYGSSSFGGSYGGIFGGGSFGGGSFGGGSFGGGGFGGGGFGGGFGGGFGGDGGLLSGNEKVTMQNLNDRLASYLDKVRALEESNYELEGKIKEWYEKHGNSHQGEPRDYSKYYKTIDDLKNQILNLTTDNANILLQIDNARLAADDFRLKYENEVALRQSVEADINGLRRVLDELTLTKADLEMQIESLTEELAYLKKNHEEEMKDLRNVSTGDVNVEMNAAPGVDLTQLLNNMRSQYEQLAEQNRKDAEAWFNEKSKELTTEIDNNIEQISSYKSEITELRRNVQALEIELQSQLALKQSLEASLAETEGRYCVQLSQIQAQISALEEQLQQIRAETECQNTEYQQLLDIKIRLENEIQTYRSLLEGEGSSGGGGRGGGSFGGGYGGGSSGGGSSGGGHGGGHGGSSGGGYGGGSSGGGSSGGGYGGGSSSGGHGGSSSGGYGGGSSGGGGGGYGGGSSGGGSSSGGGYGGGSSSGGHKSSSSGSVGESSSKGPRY
The assay is described as above.

Assay [4] concerns the target T3, N321A-BR_(187–385) (S. pneumoniae TIGR4, UniProt A0A0H2URK1 186-384, N321A).
T3 construct: PsrP, S. pneumoniae TIGR4, residues 187-385, with N321A; source: expressed from pET21d; purification of the mutants not detailed (SEC mentioned)
T3 sequence: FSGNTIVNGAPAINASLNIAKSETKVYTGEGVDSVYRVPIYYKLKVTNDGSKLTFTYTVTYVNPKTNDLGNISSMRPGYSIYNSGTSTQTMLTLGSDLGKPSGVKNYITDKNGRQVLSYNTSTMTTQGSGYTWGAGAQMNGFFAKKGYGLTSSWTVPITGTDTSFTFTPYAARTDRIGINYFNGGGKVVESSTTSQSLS
As to the kind of experiment: ELISA; KRT10-TRD coated; WT-BR_(187–385) and mutated variants at a single concentration of 1 µM; detected with Strep-Tactin HRP; normalised intensities.

The target in assay [5] is T4, K231A-BR_(187–385) (S. pneumoniae TIGR4, UniProt A0A0H2URK1 186-384, K231A).
T4 construct: PsrP, S. pneumoniae TIGR4, residues 187-385, with K231A; also called control K231A-BR_(187–385); source: expressed from pET21d; purification of the mutants not detailed (SEC mentioned)
T4 sequence: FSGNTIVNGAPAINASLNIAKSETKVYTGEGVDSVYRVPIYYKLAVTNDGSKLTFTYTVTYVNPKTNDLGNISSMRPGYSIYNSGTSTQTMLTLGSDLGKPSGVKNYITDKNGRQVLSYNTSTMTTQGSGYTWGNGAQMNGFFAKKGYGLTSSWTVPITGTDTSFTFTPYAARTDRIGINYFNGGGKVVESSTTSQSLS
Described as above.

B1: Strep-Tag-II BR_(187–385) (KRT10-binding domain of the pneumococcal serine-rich repeat protein PsrP) (domain or fragment)
chain: FSGNTIVNGAPAINASLNIAKSETKVYTGEGVDSVYRVPIYYKLKVTNDGSKLTFTYTVTYVNPKTNDLGNISSMRPGYSIYNSGTSTQTMLTLGSDLGKPSGVKNYITDKNGRQVLSYNTSTMTTQGSGYTWGNGAQMNGFFAKKGYGLTSSWTVPITGTDTSFTFTPYAARTDRIGINYFNGGGKVVESSTTSQSLS
notes: also called STII-BR_(187–385); WT-BR_(187–385)
In the case of B1, the EC50 in assay [1] is 345 nM; in assay [2] it was around 1800 nM; in assay [3] it was 345 nM.

On to B2, for which the binding result in assay [4] and in assay [5] was “binds” in each case.
